Earlier results as cited in paper PMC5580472.
Like-named read-outs stand apart in the source and are kept apart here.

Tests used:
[1] = biological target: TNF (Homo sapiens) (UniProt P01375)
[2] = biological target: TNF (Homo sapiens) (UniProt P01375); remark: listed apart in the source

Chain of TNF (Homo sapiens) (P01375 77-233): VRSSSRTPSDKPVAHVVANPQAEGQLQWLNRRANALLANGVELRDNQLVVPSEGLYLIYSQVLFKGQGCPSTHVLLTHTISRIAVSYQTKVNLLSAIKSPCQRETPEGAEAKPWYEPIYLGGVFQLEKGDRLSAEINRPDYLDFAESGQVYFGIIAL
Chain of TNF receptor 2 (P20333 23-461): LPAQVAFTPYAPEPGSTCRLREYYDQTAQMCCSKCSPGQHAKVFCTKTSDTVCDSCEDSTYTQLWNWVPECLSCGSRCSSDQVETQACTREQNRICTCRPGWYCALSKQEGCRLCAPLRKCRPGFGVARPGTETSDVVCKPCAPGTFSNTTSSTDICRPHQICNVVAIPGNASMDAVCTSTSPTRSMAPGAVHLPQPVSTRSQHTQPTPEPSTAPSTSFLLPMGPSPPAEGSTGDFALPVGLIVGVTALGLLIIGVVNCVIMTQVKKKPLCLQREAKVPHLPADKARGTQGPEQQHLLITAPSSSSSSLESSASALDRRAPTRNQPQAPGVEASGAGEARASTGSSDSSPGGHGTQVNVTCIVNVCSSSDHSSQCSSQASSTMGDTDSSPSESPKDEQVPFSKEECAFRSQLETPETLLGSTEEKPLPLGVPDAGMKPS
Chain of CrmB (P0DSV7 23-349): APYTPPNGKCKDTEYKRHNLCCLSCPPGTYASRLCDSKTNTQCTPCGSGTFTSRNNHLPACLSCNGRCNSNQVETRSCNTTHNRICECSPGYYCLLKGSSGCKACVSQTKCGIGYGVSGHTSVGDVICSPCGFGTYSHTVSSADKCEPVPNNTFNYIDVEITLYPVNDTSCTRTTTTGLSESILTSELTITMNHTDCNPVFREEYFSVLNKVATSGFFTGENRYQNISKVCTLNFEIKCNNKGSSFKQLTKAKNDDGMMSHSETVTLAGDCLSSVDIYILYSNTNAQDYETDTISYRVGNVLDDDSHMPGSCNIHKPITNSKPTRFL

Substance | Kd [1] | Kd [2]
CrmB (from UniProt P0DSV7) | 0.28 nM | 
TNF receptor 2 (from UniProt P20333) |  | 0.3 nM
